The results in this text go back to article PMC3581363 (Biochemistry, 2013).

What is called stoichiometry N is a count of units in the complex or per binding partner.

The data set concerns the molecule itself. The experiment in a line: cross-linking.

B1: sigma-1 receptor cysteine 94 alanine / methionine 170 cysteine (C94A/M170C) double mutant (receptor, guinea pig, UniProt Q60492 1-223, looked up)
chain: MQWAVGRRWLWVALFLAAVAVLTQIVWLWLGTQNFVFQREEIAQLARQYAGLDHELAFSKLIVELRRLHPVHVLPDEELQWVFVNAGGWMGAMALLHASLSEYVLLFGTALGSPRHSGRYWAEISDTIISGTFHQWREGTTKSEVFYPGETVVHGPGEATAVEWGPNTWCVEYGRGVIPSTLGFALADTVFSTQDFLTLFYTLRVYARALQLELTTYLFGQDP
For B1, the “stoichiometry N” value is 2.
